Measurements reported in article PMC3326331 (Nucleic Acids Research, 2011).

T1: His6-tagged human PSF (polypyrimidine tract binding protein associated splicing factor) (human, UniProt P23246 1-707)
T1 sequence (looked up): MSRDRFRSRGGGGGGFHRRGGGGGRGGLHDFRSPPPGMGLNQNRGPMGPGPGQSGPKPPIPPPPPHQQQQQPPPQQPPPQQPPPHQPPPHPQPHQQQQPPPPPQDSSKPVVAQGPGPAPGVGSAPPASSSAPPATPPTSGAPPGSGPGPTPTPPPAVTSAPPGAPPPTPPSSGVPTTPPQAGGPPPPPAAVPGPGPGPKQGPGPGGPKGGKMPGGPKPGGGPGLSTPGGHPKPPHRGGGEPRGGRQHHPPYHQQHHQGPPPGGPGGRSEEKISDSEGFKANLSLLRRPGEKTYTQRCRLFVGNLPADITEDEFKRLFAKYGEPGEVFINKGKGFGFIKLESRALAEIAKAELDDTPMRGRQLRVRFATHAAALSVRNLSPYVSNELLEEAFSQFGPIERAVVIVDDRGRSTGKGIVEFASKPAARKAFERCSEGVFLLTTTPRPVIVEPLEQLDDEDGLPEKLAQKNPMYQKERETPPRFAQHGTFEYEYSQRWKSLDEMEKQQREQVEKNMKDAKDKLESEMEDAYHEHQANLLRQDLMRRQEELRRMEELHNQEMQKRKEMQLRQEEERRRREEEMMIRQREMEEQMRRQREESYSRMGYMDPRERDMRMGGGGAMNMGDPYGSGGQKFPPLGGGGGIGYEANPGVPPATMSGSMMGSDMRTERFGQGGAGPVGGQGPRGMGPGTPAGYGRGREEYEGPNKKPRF


Molecular target: T1, His6-tagged human PSF (polypyrimidine …)
Test: pull-down

Row | binding result | Binder
1 | binds | human RAD51 (natural protein, UniProt Q06609 1-339, looked up) MAMQMQLEANADTSVEEESFGPQPISRLEQCGINANDVKKLEEAGFHTVEAVAYAPKKELINIKGISEAKADKILAEAAKLVPMGFTTATEFHQRRSEIIQITTGSKELDKLLQGGIETGSITEMFGEFRTGKTQICHTLAVTCQLPIDRGGGEGKAMYIDTEGTFRPERLLAVAERYGLSGSDVLDNVAYARAFNTDHQTQLLYQASAMMVESRYALLIVDSATALYRTDYSGRGELSARQMHLARFLRMLLRLADEFGVAVVITNQVVAQVDGAAMFAADPKKPIGGNIIAHASTTRLYLRKGRGETRICKIYDSPCLPEAEAMFAINADGVGDAKD
2 | binds | human DMC1 (natural protein, UniProt Q14565 1-340, looked up) MKEDQVVAEEPGFQDEEESLFQDIDLLQKHGINVADIKKLKSVGICTIKGIQMTTRRALCNVKGLSEAKVDKIKEAANKLIEPGFLTAFEYSEKRKMVFHITTGSQEFDKLLGGGIESMAITEAFGEFRTGKTQLSHTLCVTAQLPGAGGYPGGKIIFIDTENTFRPDRLRDIADRFNVDHDAVLDNVLYARAYTSEHQMELLDYVAAKFHEEAGIFKLLIIDSIMALFRVDFSGRGELAERQQKLAQMLSRLQKISEEYNVAVFVTNQMTADPGATMTFQADPKKPIGGHILAHASTTRISLRKGRGELRIAKIYDSPEMPENEATFAITAGGIGDAKE
